Target: T1, His-tagged Proliferating Cell Nuclear Antigen (PCNA) (human, UniProt P12004 1-261)
T1 construct: human PCNA, cloned into the NdeI and XhoI sites of pET28a for expression with an N-terminal His-tag; Used for ITC and for the peptide pull-downs; also called His-tagged PCNA; His-tagged recombinant PCNA; source: E. coli, from pET28a, purified (Ni-NTA, Q-sepharose, Superdex S-200); not shown: His tag, N-terminal, kept
Assay: ITC; 15 μM PCNA in the cell, peptides injected stepwise (20 injections of 2 μl), 25 °C, PBS with 1 mM β-mercaptoethanol, single set of independent binding sites model
Conditions: both partners purified

T1 sequence (P12004 whole entry): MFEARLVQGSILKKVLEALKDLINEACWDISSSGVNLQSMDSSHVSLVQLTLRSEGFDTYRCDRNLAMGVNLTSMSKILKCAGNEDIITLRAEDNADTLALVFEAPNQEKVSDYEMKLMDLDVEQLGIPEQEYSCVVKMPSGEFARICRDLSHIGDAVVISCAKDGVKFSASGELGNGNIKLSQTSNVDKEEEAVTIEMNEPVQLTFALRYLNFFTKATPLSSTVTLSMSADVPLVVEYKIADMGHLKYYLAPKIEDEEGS

SKHGSDITRFLVKK [ZRANB3 APIM motif synthetic peptide used for ITC]
Kd: 9.24 µM
stoichiometry N: 1 peptide per PCNA monomer

EKEKQHDIRSFFVPQ [ZRANB3 PIP box synthetic peptide used for ITC]
Kd: 4.8 µM
stoichiometry N: 1 peptide per PCNA monomer
